Reference: article PMC3276575, “Structural and Functional Insights into the Pilotin-Secretin Complex of the Type II Secretion System” (PLoS Pathogens, 2012)
Ends that are not written are not given here.

Tests used:
[1] = system: pilotin (OutS); assay: 3JHNHA NMR spectra of secretin peptide with pilotin; assay type: binding, Dickeya dadantii; conditions: presence of pilotin, 15°C
Description: (§1) Samples of 0.05 to 0.5 mM labelled proteins in 90% H2O, 10% ^2H2O containing 20 mM Tris (pH 7.0) and 150 mM NaCl. All NMR spectra were acquired at 15°C using Bruker Avance 700- and 600-MHz spectrometers. Assignment of ^1H, ^15N, and ^13C resonances of the backbone was achieved by analysis of HNCACB, CBCA (CO)NH triple resonance experiments.
Supplementary file ppat.1002531.s005.doc: Figure S5 3JHNHA spectra of ^15N-labelled secretin peptide (OutD^680–710) in the absence (red) and presence (black) of pilotin (OutS). The spectra were acquired using a Bruker 700 MHz spectrophotometer at measured at 15°C. […] The 3JHNHA coupling constant was calculated according to measurement of the diagonal-peak to cross-peak intensity ratio in a 3D ^15N separated quantitative J-correlation spectra. […] (DOC) Click here for additional data file.

[2] = molecular target: T1, non-lipidated pilotin OutS (residues 26 to 132) of Dickeya dadantii (Dickeya dadantii, UniProt Q01567 26-132, disulfide bridge Cys 61-Cys 115); assay: NMR titration; 1H-15N HSQC of 15N-labelled pilotin (100 µM), unlabelled secretin peptides titrated in; 15°C, 20 mM Tris pH 7.0, 150 mM NaCl; conditions: both partners purified
T1 chain: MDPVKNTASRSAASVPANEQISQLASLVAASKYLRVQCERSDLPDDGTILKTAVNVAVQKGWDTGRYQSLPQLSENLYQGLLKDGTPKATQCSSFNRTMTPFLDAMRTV

[3] = system: non-lipidated OutS; assay: GST pull-down assay; assay type: binding, Dickeya dadantii
Description: (§2) Figure S6. Reducing environment prevents interaction of OutS with the C-terminal peptide of OutD. […] Soluble cell extracts of E. coli BL21(DE3) producing either GST alone (lane 1) or GST-OutD649-710 (lanes 2 and 3) were combined with a periplasmic extract containing non-lipidated OutS, then loaded on Glutathione Agarose for 1 h and washed. The incubations were performed in either TBS (lanes 1 and 2) or TBS with 5 mM DTT (lane 3). Bound proteins were eluted with Laemmli sample buffer, separated by Tricine-SDS-PAGE and either stained (upper panel) or probed with OutS antibodies (lower panel). Asterisk indicates a degradation product of GST-OutD649-710. […] The region coding for mature OutS (residues […]) was fused to the C-terminus of T18 subunit of Cya (pUT18-OutS) and the region coding for GST-OutD649-710 was fused to the C-terminus of T25 subunit of Cya (pKT25-GST-Dct). When pUT18-OutS and pKT25-GST-Dct were coexpressed in E. coli DHP1 cya strain, the coresponding fusion proteins were well produced as shown by immunoblotting with anti-OutS and anti-GST antibodies, respectively. […] is indicated by a dot and T25-GST-Dct by a triangle.

[4] = system: OutS; assay: Bacterial two-hybrid assay; assay type: cell-based, Dickeya dadantii
Description: as §2

[5] = system: pilotin; conditions: ref [11]; cited from earlier work
Text: This secretin peptide was produced with ^15N-label as a fusion to GST and then released with PreScision protease.

[6] = NMR 1H-15N HSQC of free secretin peptide (disorder); assay type: physicochemical; conditions: 20 mM Tris pH 7.0, 150 mM NaCl, 15°C, 700 MHz
Description: as §1
(§3) Supplementary file ppat.1002531.s004.doc: Figure S4 The C-terminus of the 62 residue secretin peptide ([…]) is unstructured. ^1H-^15N HSQC spectra of recombinantly produced ^15N-labelled secretin peptide (70 µM peptide in 20 mM Tris pH 7.0 with 150 mM NaCl at 15°C) acquired using a Bruker 700 MHz spectrophotometer. […] The spectra are cleaner than those shown previously (Figure S2 and S3) because the spectra were acquired quickly. […] (DOC) Click here for additional data file.

[7] = Cleavage of secretin peptide during lengthy NMR experiments; assay type: physicochemical; conditions: during more lengthy NMR experiments; 20 mM Tris pH 7.0, 150 mM NaCl, 15°C
Description: as §3

[8] = system: secretin; assay: Effect of pilotin binding-surface mutations on secretin binding; set-up: species or system Dickeya dadantii; conditions: in words
Text: The pET-20b(+) plasmid expressing non-lipidated OutS (residues 26 to 132) fused to N-terminal PelB signal peptide has been constructed previously at a manner as the sequence of mature non-lipidated OutS after cleavage by the signal peptidase LepB is: MDP^26VKNT etc. To fuse a C-terminal 6His tag to non-lipidated OutS, SalI site was introduced at the end of outS sequence by using the primer (5′-ctt gac gcc atg cgc acc gtc gac tga ggg gga agc aac tgc) and the reverse complementary one (mutated bases are underlined). Then, by SalI/XhoI digestion the sequence coding for non-lipidated OutS was fused with that coding for 6His. Mutants of OutS were made using Strategene QuikChange and confirmed by sequencing.
Fluorescence data were collected using a Jasco FP-6300 Spectrofluorometer. To avoid exciting tyrosyl side chains, an excitation wavelength of 290 nm was used. Emission spectra were recorded at 15°C in steps of 2 nm from 310 to 400 nm. The fluorescence signal at 340 nm was plotted to calculate K d. Pilotin spectra was measured at 1 µM. 50 µM of secretin peptide prepared in 1 µM pilotin was titrated into pilotin solution (for more information see also Table S1 and reference).

[9] = molecular target: T1, non-lipidated pilotin OutS (residues 26 …); assay: other fluorescence titration; quenching of the single tryptophan of pilotin (1 µM) on titration with 50 µM secretin peptide in 1 µM pilotin; excitation 290 nm, signal at 340 nm, 15°C; conditions: both partners purified

## OutD^680–710: 15N-labelled secretin peptide (OutD680–710) (DNNTLRLSGGNTYTFRQVQSSISDFYKPEGR; also: 15N-labelled; UniProt Q01565 680-710, looked up, fragment)
[1]
  residues of secretin peptide that become helical on binding: at least four

B1: 62 residue C-terminal secretin peptide (OutD residues 649-710) (peptide)
chain: DPGQFQEASINKYRSFNNEQQQQRGEGNGVLDNNTLRLSGGNTYTFRQVQSSISDFYKPEGR
notes: secretin OutD, Dickeya dadantii, C-terminal 62 residues (649-710); 15N-labelled in one titration, unlabelled in the other; The peptide is slowly cleaved; also called 62 residue secretin peptide; OutD^648–710; source: E. coli BL21(DE3), purified as GST fusion, released with PreScision protease; not shown: GST, N-terminal, cleaved
[2]
  stoichiometry N: 1

B2: GST-OutD649-710: C-terminal segment of OutD fused to GST; in two-hybrid fused to C-terminus of T25 subunit of Cya (protein)
chain: DPGQFQEASINKYRSFNNEQQQQRGEGNGVLDNNTLRLSGGNTYTFRQVQSSISDFYKPEGR
modifications: not fully specified (N-terminus); also: fused to GST
notes: C-terminal segment of OutD fused to GST; in two-hybrid fused to C-terminus of T25 subunit of Cya
[3]; reducing conditions, TBS with 5 mM DTT, 1 h on Glutathione Agarose
  binding in GST pull-down: does not bind
[4]; MacConkey-maltose agar, known interacting couple used as positive control
  colony colour in bacterial two-hybrid assay: white colonies
[4]; reducing conditions of the bacterial cytoplasm, T25/T18 fusions, E. coli DHP1 cya, MacConkey-maltose agar
  interaction in bacterial two-hybrid assay: does not interact

B3: 62 residue secretin peptide: C-terminal 62 residues of the secretin, produced as a fusion to GST and released with PreScision protease (protein)
chain: DPGQFQEASINKYRSFNNEQQQQRGEGNGVLDNNTLRLSGGNTYTFRQVQSSISDFYKPEGR
modifications: left off: GST, N-terminal, cleaved
notes: C-terminal 62 residues of the secretin, produced as a fusion to GST and released with PreScision protease
[5]
  binding to pilotin: bound to the pilotin
[6]
  structure in solution (dispersion of backbone amides): intrinsically unstructured
[6]; listed as C-terminal 62 residues
  structure in solution (dispersion of backbone amides): unstructured in solution
[7]
  cleavage of peptide: slowly cleaved

B4: OutS: Dickeya dadantii type II secretion system pilotin, non-lipidated (residues 26 to 132), UniProt Q01567 (protein)
chain: CQTPAPVKNTASRSAASVPANEQISQLASLVAASKYLRVQCERSDLPDDGTILKTAVNVAVQKGWDTGRYQSLPQLSENLYQGLLKDGTPKATQCSSFNRTMTPFLDAMRTVR
[3]; reducing agent, non-lipidated OutS with GST-OutD649–710
  binding to cognate secretin with reducing agent, pull-down: unable to bind the cognate secretin
[4]; bacterial two-hybrid
  binding to cognate secretin with reducing agent, two-hybrid: unable to bind the cognate secretin

B5: OutS_L96A (protein, UniProt Q01567 21-133, looked up, variant L96A)
Pilotin OutS: CQTPAPVKNTASRSAASVPANEQISQLASLVAASKYLRVQCERSDLPDDGTILKTAVNVAVQKGWDTGRYQSLPQASENLYQGLLKDGTPKATQCSSFNRTMTPFLDAMRTVR
[8]
  effect of mutation on binding: substantial effect on binding

B6: OutS_Q114A (protein, UniProt Q01567 21-133, looked up, variant Q114A)
Pilotin OutS: CQTPAPVKNTASRSAASVPANEQISQLASLVAASKYLRVQCERSDLPDDGTILKTAVNVAVQKGWDTGRYQSLPQLSENLYQGLLKDGTPKATACSSFNRTMTPFLDAMRTVR
[8]
  effect of mutation on binding: substantial effect on binding

B7: OutS_L100A (protein, UniProt Q01567 21-133, looked up, variant L100A)
Pilotin OutS: CQTPAPVKNTASRSAASVPANEQISQLASLVAASKYLRVQCERSDLPDDGTILKTAVNVAVQKGWDTGRYQSLPQLSENAYQGLLKDGTPKATQCSSFNRTMTPFLDAMRTVR
[8]
  effect of mutation on binding: substantial effect on binding

B8: OutS_S49R (protein, UniProt Q01567 21-133, looked up, variant S49R)
Pilotin OutS: CQTPAPVKNTASRSAASVPANEQISQLARLVAASKYLRVQCERSDLPDDGTILKTAVNVAVQKGWDTGRYQSLPQLSENLYQGLLKDGTPKATQCSSFNRTMTPFLDAMRTVR
[8]
  effect of mutation on binding: profound effect on binding

B9: 18 residue synthetic secretin peptide (OutD residues 691 to 708 inclusive) (peptide)
peptide: TYTFRQVQSSISDFYKPE
notes: secretin OutD, Dickeya dadantii, residues 691 to 708 inclusive; also called 18 residue secretin peptide; OutD^691–708; source: synthetic peptide, bought: Generon
[9]
  Kd: 55 ± 20 nM
  stoichiometry N: 1
